Assays:
[1] = molecular target: T1, human PD-L2 expressed on CHO cells (CHO-hPD-L2 cells) (human, UniProt Q9BQ51 20-273); assay: flow cytometry cell binding
T1 chain: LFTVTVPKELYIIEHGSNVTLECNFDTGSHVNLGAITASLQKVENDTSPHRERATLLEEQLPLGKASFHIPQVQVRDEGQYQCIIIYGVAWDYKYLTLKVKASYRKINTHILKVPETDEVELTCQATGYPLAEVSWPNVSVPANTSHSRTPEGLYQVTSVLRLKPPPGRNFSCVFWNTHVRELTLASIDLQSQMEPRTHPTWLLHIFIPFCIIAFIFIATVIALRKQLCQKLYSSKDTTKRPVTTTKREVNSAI

[2] = molecular target: human PD-L1 expressed on CHO cells (CHO-hPD-L1 cells) (human, UniProt Q9NZQ7 19-290); assay: flow cytometry cell binding
Sequence of human PD-L1 expressed on CHO cells (CHO-hPD-L1 cells) (Q9NZQ7 19-290): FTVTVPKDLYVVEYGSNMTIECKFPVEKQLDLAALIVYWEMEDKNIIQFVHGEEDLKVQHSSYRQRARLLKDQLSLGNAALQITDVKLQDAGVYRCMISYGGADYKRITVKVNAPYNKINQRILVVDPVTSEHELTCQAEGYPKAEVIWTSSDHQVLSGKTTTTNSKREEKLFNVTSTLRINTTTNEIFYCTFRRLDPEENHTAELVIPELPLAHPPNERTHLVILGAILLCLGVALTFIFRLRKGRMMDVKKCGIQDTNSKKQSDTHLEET

EC50 [1]: 1.25 nM | EC50 [2]: 3.79 nM
B1: anti-PD-L1/PD-L2 bispecific antibody Fc fusion protein Bi-203-204 (bispecific antibody, V domains shown)
V domain 1: QVQLVESGGGLVKPGGSLRLSCAASGHTFIIYAIGWFRQAPGKGLEFVATINWSGSMTNYADSVKGRFTISRDNAKNTVYLQMNSLKPDDTAVYYCAAYVGATISTAHSRYDYWGQGTLVTVSS
V domain 2: EVQLVESGGGLVQPGGSLRLSCAASGRTFSSMTIGWFRQAPGKGLEFVSGIGWTSGLTVYADSVKGRFTISRDNAKNSMYLQMNSLRAEDTAVYYCAADSMNRGQFDYWGQGTLVTVSS

From patent US20230167200A1 (published 2023)
